Test results reported in the supplement of paper PMC9233669.
This sample holds only a part of the variants without activity.

Experiments:
[1] = system: biotinyl-Phe-oxazolone; assay: self-aminoacylation, catalytic enhancement (BFO) (fold over background); higher = more active; k-Seq, kA / k0A0; sequences stand for … in GGGAAUGGAUCCACAUCUACGAAUUC…UUCACUGCAGACUUGACGAAGCUG
In short: (§1)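 Working in 50 μL HEPES/NaCl/KCl/MgCl2/CaCl2 buffer with 5% acetonitrile at pH 6.9–7.0, mutagenized RNA pools (0.43 μM; 21-nt variable region) were reacted with 2–1250 μM of each biotinyl-aminoacyl-oxazolone for 90 minutes at room temperature. Streptavidin capture followed, with quantification by triplicate qPCR and Illumina sequencing. Catalytic enhancement is reported as median kA over the uncatalyzed rate, the low-activity peak of a bimodal Gaussian fit to the data.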

[2] = system: biotinyl-Leu-oxazolone; assay: self-aminoacylation, catalytic enhancement (BLO) (fold over background); higher = more active; k-Seq, kA / k0A0; sequences stand for … in GGGAAUGGAUCCACAUCUACGAAUUC…UUCACUGCAGACUUGACGAAGCUG
In short: as §1

[3] = system: biotinyl-Trp-oxazolone; assay: self-aminoacylation, catalytic enhancement (BWO) (fold over background); higher = more active; k-Seq, kA / k0A0; sequences stand for … in GGGAAUGGAUCCACAUCUACGAAUUC…UUCACUGCAGACUUGACGAAGCUG
In short: as §1

[4] = system: biotinyl-Met-oxazolone; assay: self-aminoacylation, catalytic enhancement (BMO) (fold over background); higher = more active; k-Seq, kA / k0A0; sequences stand for … in GGGAAUGGAUCCACAUCUACGAAUUC…UUCACUGCAGACUUGACGAAGCUG
In short: as §1

Sequence	self-aminoacylation [1]	self-aminoacylation [2]	self-aminoacylation [3]	self-aminoacylation [4]
UUACUUCAAACAAUCGGUCGG [Fam1A.1 aminoacylation ribozyme variant]	18.1	2.1	14.5	
UCAGACUUCAAGCAAUCGGUC [Fam1B.1 aminoacylation ribozyme variant]	63.8	2.62	37.2	
AUUCACCUAGGUCCUCGGGAG [Fam2.2 aminoacylation ribozyme variant]	2.83	2.11		
GCACUCUUCAAGCAAUCGGUC [Fam1B.1 aminoacylation ribozyme variant]	6.58	2.07	5.27	
AUUACCCUGGUCAUCCAGAGA [Fam2.1 aminoacylation ribozyme variant]	2.38	2.03		
CCACUCUUCAAGCAAUCGGGC [Fam1B.1 aminoacylation ribozyme variant]		2.21		
CGACUUCAAACAAUCGGUGUG [Fam1A.1 aminoacylation ribozyme variant]	10.9	2.54	9.56	
AAGUGUGCUAAUAGUCGCCAG [Fam3.1 aminoacylation ribozyme variant]	2.38	2.2	2.33	
CUACCUCAAACAAUCGGCCUG [Fam1A.1 aminoacylation ribozyme variant]	3.13	2.11	5.05	
CUACUUCAAAGAAUCGGCCUG [Fam1A.1 aminoacylation ribozyme variant]	6.89	2	8.54	
AUUACCCUGGUCCUCGAGUGG [Fam2.1 aminoacylation ribozyme variant]	2.88			2.1
CUACUUCAAACAAUCGAUGUG [Fam1A.1 aminoacylation ribozyme variant]	3.31			2.24
AAGACUGCUAAUAGUCGCAAG [Fam3.1 aminoacylation ribozyme variant]	18.5		4.56	2.04
CGAGUUCAAACAAUCGGUCUG [Fam1A.1 aminoacylation ribozyme variant]	6.84		4.57	
CCACUUCAAACAAUCAGUCUG [Fam1A.1 aminoacylation ribozyme variant]	29.2		10.1	
GUACUUCAAACAAUCGGUAUG [Fam1A.1 aminoacylation ribozyme variant]	11.5		9.84	
AACUCUGCUAAUAGUCGCAAG [Fam3.1 aminoacylation ribozyme variant]	16.4		5.56	2.46
CUACUUCAAUAAAUCGGUCUG [Fam1A.1 aminoacylation ribozyme variant]	7.8		4.71	
AUUCACUUAGCUCAUCGGGUG [Fam2.2 aminoacylation ribozyme variant]	4.96	2.03		

Sequence	self-aminoacylation [1]	self-aminoacylation [2]	self-aminoacylation [3]	self-aminoacylation [4]
CCUCUUCAAACAAUCGGUCUG [Fam1A.1 aminoacylation ribozyme variant]	85.8	2.36	38.6	
AAACUUCAAACAAUCGGUCUG [Fam1A.1 aminoacylation ribozyme variant]	30.9		18.7	
CUAAUUCAAACAAUCGGUCUC [Fam1A.1 aminoacylation ribozyme variant]	6.39		2.9	
CUACACUUCAAGUAAUCGGUC [Fam1B.1 aminoacylation ribozyme variant]	13.1		7.07	
AAGUAUGCUAAUAGUCGCAAG [Fam3.1 aminoacylation ribozyme variant]	22.9		6.46	
CUACUUCAAACAAUCGGUCGC [Fam1A.1 aminoacylation ribozyme variant]	46.9		26.2	
CCAGACUUCAAGUAAUCGGUC [Fam1B.1 aminoacylation ribozyme variant]	11.5		8.35	
AAGCUUGCUAAUAGUCGCAGG [Fam3.1 aminoacylation ribozyme variant]	7.7	2.14	2.15	
AAGAAUGCUAAUAGUCGCAAG [Fam3.1 aminoacylation ribozyme variant]	12.5		3.69	2.19
CCUCACUUCAAUCAAUCGGUC [Fam1B.1 aminoacylation ribozyme variant]	39.5		17.9	
CCGCACUUCAAACAAUCGGUC [Fam1B.1 aminoacylation ribozyme variant]	157	3.41	74.3	
UUACUUCAAACAAUCGGUCUU [Fam1A.1 aminoacylation ribozyme variant]	17		9.31	
CUUCUUCAAACAAUCGGUCCG [Fam1A.1 aminoacylation ribozyme variant]	3.96		2.74	
UCAAACUUCAAGCAAUCGGUC [Fam1B.1 aminoacylation ribozyme variant]	25.8		15.9	
ACAAACUUCAAGCAAUCGGUC [Fam1B.1 aminoacylation ribozyme variant]	15		9.7	
CGACUCCAAACAAUCGGUCUG [Fam1A.1 aminoacylation ribozyme variant]	3.55		3.11	
CCACAAUUCAACCAAUCGGUC [Fam1B.1 aminoacylation ribozyme variant]	6.75		5.9	
AUUACCCUCGUCGUCGAGUGA [Fam2.1 aminoacylation ribozyme variant]	3.84	2.04	2.11	
AUACUUCAAACAAUCGGUCUG [Fam1A.1 aminoacylation ribozyme variant]	14.7		9.11	

Sequence	self-aminoacylation [1]	self-aminoacylation [2]	self-aminoacylation [3]	self-aminoacylation [4]
CCAUACUUCAACCAAUCGGUC [Fam1B.1 aminoacylation ribozyme variant]	32.7		17.2	
AAGAUUGUUAAUAGUCGCAAG [Fam3.1 aminoacylation ribozyme variant]	2.81		2.65	2.14
CUACUUCAAACAAUCGGUUUA [Fam1A.1 aminoacylation ribozyme variant]	4.11		2.11	
CAACAUCAAACAAUCGGUCUG [Fam1A.1 aminoacylation ribozyme variant]	7.46		3.73	
CUAAUUCAAACAAUCGGCCUG [Fam1A.1 aminoacylation ribozyme variant]	5.4		3.89	
CCAGGCUUCAAGCAAUCGGUC [Fam1B.1 aminoacylation ribozyme variant]	83.5	2.42	40.8	
AUUACCCUGGGCUUCGAGUGA [Fam2.1 aminoacylation ribozyme variant]			2.03	2.01
CCCCAAUUCAAGCAAUCGGUC [Fam1B.1 aminoacylation ribozyme variant]	7.89		7.09	
CUACUUCAAACAAUCGGUCUG [Fam1A.1 aminoacylation ribozyme variant]	67.9		31.4	
CUGCUUCAAACAAUCGGUCUC [Fam1A.1 aminoacylation ribozyme variant]	107	2.47	46	
CUACUUCAACCAAUCGGUAUG [Fam1A.1 aminoacylation ribozyme variant]	9.31		4.25	
CUACUUCAAAUAAUCGGACUG [Fam1A.1 aminoacylation ribozyme variant]	6.03		2.71	
CUACCUCAAACAUUCGGUCUG [Fam1A.1 aminoacylation ribozyme variant]	10.3	2.13	3.08	
CUACUUCAAACAAUCGGACUG [Fam1A.1 aminoacylation ribozyme variant]	17.5		7.87	
AAGUUAGCUAAUAGUCGUAAG [Fam3.1 aminoacylation ribozyme variant]	14		3.54	
CCACACUUCAAGCAGUCGCUC [Fam1B.1 aminoacylation ribozyme variant]	4.31	2.06		
CUACUUCAAACAAUCAGUCUG [Fam1A.1 aminoacylation ribozyme variant]	27.8		9.7	
AAGUUUGCCAAUUGUCGCAAG [Fam3.1 aminoacylation ribozyme variant]	2.77		2.15	
